The test addresses TβR-II/TGF-β3 binary complex (UniProt P37173). The test is described as follows: SPR.

For the substance TβR-I 7–91 (domain or fragment), the Kd was determined as 310 nM.

As a reminder, the Kd is a measure of binding affinity in units of concentration. Low readings indicate tighter binding, high ones weaker binding.
